Data set [1] is described as follows: Solubility in aqueous solvents (general statement). In kind it is physicochemical. The text has this: For example, 30% organic solvent is needed to keep the conjugate in solution.
Data set [2] deals with MSA (mouse serum albumin) (Mus musculus, UniProt P07724). The experiment in a line: Biosensor (Biacore) analysis of ABD variants' binding to mouse serum albumin. The note with it: N-terminal His6-tagged proteins injected at 25 nM; MSA immobilized 350 RU; qualitative measure of relative affinities. The method, then: (§1) ABDwt and the twelve ABD variants, all sub-cloned in pAY442 as described above, were expressed in E. coli BL21(DE3) as fusions to an N-terminal His6-tag and purified by IMAC. A colony of each ABD variant was used to inoculate 5 ml TSB medium supplemented with 50 μg/ml kanamycin. The cultures were grown over night at 37° C. The following day, 50 μl of each culture were inoculated separately to 100 ml TSB+YE medium supplemented with 50 μg/ml kanamycin in a 1 liter flask. The cultures were grown at 100 rpm at 37° C. to an OD600 of 0.7-1, after which IPTG was added to a final concentration of 0.5 mM and cells were incubated at room temperature over night at 100 rpm. Cultures were harvested by centrifugation at 8000 g for 5 minutes and pellets were stored in a freezer until protein preparation.
(§2) The His6-tagged proteins were IMAC purified under denatured conditions using Ni-NTA Superflow columns and QIAsoft 4.1, protein/Ni-NTA Superflow 96 denaturing large scale 2 Vac4-24 samples, on a Biorobot 3000 (Qiagen). The buffer was exchanged to PBS using a dialysis cassette (Slide-A-Lyser, 3.5 kDa; Pierce cat. no. 66330) by dialyzing against 5 l PBS for 2 h followed by an additional dialysis over night. […]
On the technique in general: SPR reads the build-up and loss of mass on a sensor chip optically.

For data set [3], the target named is T1, HSA (human serum albumin) (Homo sapiens, UniProt P02768). The experiment in a line: Biosensor (Biacore) analysis of ABD variants' binding to human serum albumin (Example 2). The note with it: N-terminal His6-tagged proteins injected at 25 nM; HSA immobilized 360 RU; qualitative measure of relative affinities. The method, then:
as §1, §2

For data set [4], the target named is T1, HSA (human serum albumin). The experiment in a line: Biosensor analysis for binding kinetics to human serum albumin (Example 3). The note with it: His6-tagged; HSA immobilized 450 RU; values estimated. As for the experimental part:
ABD00003, ABD00053, ABD00239 and ABDwt were expressed in E. coli BL21(DE3) cells as fusions to an N-terminal His6-tag using constructs as described in Example 2, and purified by IMAC. A colony of each ABD variant was used to inoculate 10 ml TSB medium supplemented with 50 μg/ml kanamycin. The cultures were grown over night at 37° C. The following day, 500 μl of each culture were inoculated separately to 500 ml TSB+YE medium supplemented with 50 μg/ml kanamycin in a 5 liter flask. The cultures were grown at 100 rpm and 37° C. to an OD600 of 0.7-1, which was followed by addition of IPTG to a final concentration of 0.5 mM and incubated at room temperature over night. Cultures were harvested by centrifugation at 8000 g for 5 minutes and pellets were stored at −20° C. until protein preparation.
The His6-tagged proteins were IMAC purified under denaturing conditions using His-Gravitrap™ kit (GE Healthcare). The pellets were re-suspended (vortexed) in 20 ml of the denaturation buffer B-7M (100 mM NaH2PO4, 10 mM Tris-Cl, 7 M urea, pH 8) and 8 μl benzonase was added.
Biosensor analysis on a Biacore2000 instrument (Biacore) was performed with HSA (SIGMA, cat. no. A3782-5G) immobilized by amine coupling onto the carboxylated dextran layer on surfaces of a CM-5 chip (research grade; Biacore), according to the manufacturer's recommendations. […] One cell surface on the chip was activated and deactivated and used as reference cell during injections. The purified His6-ABD samples were diluted in HBS-EP (Biacore) to 4, 10, 40, 100 and 400 nM for ABDwt and to 0.2, 0.8, 2, 5 and 20 nM for the selected ABD variants. The samples were injected at a constant flow-rate of 25 μl/min for 10 min, followed by injection of HBS-EP for 3 hours. The surfaces were regenerated with two injections of 20 μl of 5 and 10 mM HCl.

MSA (mouse serum albumin), sequence (P07724 25-608): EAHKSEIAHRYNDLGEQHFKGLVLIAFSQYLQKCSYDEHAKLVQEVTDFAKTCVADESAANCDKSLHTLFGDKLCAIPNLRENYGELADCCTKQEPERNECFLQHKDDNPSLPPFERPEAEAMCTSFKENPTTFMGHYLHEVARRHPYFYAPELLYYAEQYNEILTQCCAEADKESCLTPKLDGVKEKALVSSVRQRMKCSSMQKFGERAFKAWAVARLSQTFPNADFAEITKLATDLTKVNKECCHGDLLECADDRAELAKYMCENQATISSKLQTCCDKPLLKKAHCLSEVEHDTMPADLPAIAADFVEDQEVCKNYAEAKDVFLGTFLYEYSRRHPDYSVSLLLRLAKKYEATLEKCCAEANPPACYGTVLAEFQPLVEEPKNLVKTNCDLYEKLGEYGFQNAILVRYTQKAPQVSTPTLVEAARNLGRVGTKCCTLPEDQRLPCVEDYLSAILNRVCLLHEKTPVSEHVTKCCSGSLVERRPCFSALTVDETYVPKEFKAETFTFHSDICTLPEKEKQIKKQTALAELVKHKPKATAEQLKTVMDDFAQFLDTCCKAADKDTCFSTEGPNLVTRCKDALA

Consider `COc1cccc2c1C(=O)c1c(O)c3c(c(O)c1C2=O)C[C@@](O)(C(=O)CO)CC3O[C@H]1CC(NC(=O)OCc2ccc(NC(=O)OCc3ccc(NC(=O)[C@H](CCCNC(N)=O)NC(=O)[C@@H](NC(=O)CCCCCN4C(=O)C=CC4=O)C(C)C)cc3)cc2)C(O)[C@@H](C)O1` (stereo partly drawn) [free linker, Maleimide-Spacelinker-Doxorubicin], for which, in data set [1], the “solubility in aqueous solvents” value is reported as “low solubility”.

What is called Kd is the concentration at which binding is half-saturated. Take ABDwt: the Kd in data set [2] was 4.9 nM; in data set [3], 1.5 nM; in data set [4], 1.2 nM. Besides, the “ka to HSA” value in data set [4] was 550000 M/s. For the same compound, the “kd to HSA” value in data set [4] is 0.00065 s⁻¹.

The record behind these values is patent publication US8937153B2, “Compositions, methods and uses” (Affibody AB, priority 2007, dated 2015).
